The chains are these.
B1: MBP-fused Apc1-loop^500 WT fragment [Xenopus tropicalis] / Plx1-PBD WT (polo-box domain of Plx1) [Xenopus laevis] (parent)
chain 1: EPADCYLSEMLQQLTCLNAVKPSERALIRQEEAEDPASIPIFWISKWVDYSDKYGLGYQLCDNSVGVLFNDSTRLIMYNDGDSLQYIERNNTESYLNVRSYPTTLTKKITLLKYFRNYMSEHLLKAGANTTPREGDELARLPFLRTWFRTRSAIILHLSNGTVQINFFQDHTKIILCPLMAAVSYIDEKREFRTYKLSLIQEFGCCKELASRLRYARTMVEKLQSSKSAVAHVKASA
chain 2: GLAAPSLGMSNPMPRPSTPLESISTPAKPLNKHLAPMDEAGMLSPVPELRDSTRLHESTYLDDCTFHQFG
B2: MBP-fused Apc1-loop^500 WT fragment [Xenopus tropicalis] / Plx1 (polo-like kinase homolog in Xenopus laevis), endogenous [Xenopus laevis (endogenous in egg extracts)] (parent)
chain 1: MAQVAGKKLTVAPEAAKPPGIPGSSSAVKEIPEILVDPRTRRRYLRGRFLGKGGFAKCYEITDLESREVFAGKIVPKTMLLKPHQKDKMTMEIAIQRSLDHRHVVGFHGFFEDNDFVYVVLELCRRRSLLELHKRRKAVTEPEARYYLKQTISGCQYLHSNRVIHRDLKLGNLFLNDEMEVKIGDFGLATKVEYDGERKKTLCGTPNYIAPEVLGKKGHSFEVDIWSIGCIMYTLLVGKPPFETSCLKETYMRIKKNEYSIPKHINPVAAALIQKMLRSDPTSRPTIDDLLNDEFFTSGYIPSRLPTTCLTVPPRFSIAPSTIDQSLRKPLTAINKGQDSPLVEKQVAPAKEEEMQQPEFTEPADCYLSEMLQQLTCLNAVKPSERALIRQEEAEDPASIPIFWISKWVDYSDKYGLGYQLCDNSVGVLFNDSTRLIMYNDGDSLQYIERNNTESYLNVRSYPTTLTKKITLLKYFRNYMSEHLLKAGANTTPREGDELARLPFLRTWFRTRSAIILHLSNGTVQINFFQDHTKIILCPLMAAVSYIDEKREFRTYKLSLIQEFGCCKELASRLRYARTMVEKLQSSKSAVAHVKASA
chain 2: B1 chain 2

In the first experiment the parent is B1. Put plainly: MBP pull-down (amylose beads), SDS-PAGE with Coomassie brilliant blue staining, quantified. To be noted: anaphase extracts supplemented with non-degradable cyclin B, 23°C, 1 h, then 10 µg WT Plx1-PBD for 15 min, parent: 1, read off a plot.
Take chain 2 T18A T25A: the ratio to parent was found to be 0.03.

Variants of B1 are the subject of a further experiment. Briefly: MBP pull-down (amylose beads), SDS-PAGE with Coomassie brilliant blue staining, quantified as bound Plx1-PBD per Apc1-loop500. To be noted: with MBP-fused Apc1-loop^500 WT fragment [Xenopus tropicalis]; input 10 µg Plx1-PBD, 15 min; Apc1-loop500 pre-incubated in anaphase extracts with non-degradable cyclin B, 23°C, 1 h; parent: 1.1; read off a plot.
Turning to chain 1 H171A K173M, the response is 0.07 A.U.

Staying with this experiment, now noted: with MBP-fused Apc1-loop^500 WT fragment [Xenopus tropicalis]; input 15 µg Plx1-PBD, 15 min; Apc1-loop500 pre-incubated in anaphase extracts with non-degradable cyclin B, 23°C, 1 h; parent: 1.4; read off a plot.
On to chain 1 H171A K173M, for which the response came out at 0.09 A.U.

Variants of B2 are the subject of another experiment. Put plainly: MBP pull-down (amylose beads) from Xenopus egg anaphase extracts, immunoblot with Plx1 antibody, quantified. To be noted: anaphase extracts supplemented with non-degradable cyclin B, 23°C, 1 h, parent: 1, read off a plot. (In western blotting, separated proteins are transferred to a membrane and probed.)
As for chain 2 T25A, the ratio to parent was determined as 0.61 A.U.
On to chain 2 S44A, for which the ratio to parent is 0.5 A.U.
The same measure, in the same setting: in the case of chain 2 T18A T25A it was 0.51 A.U; in that of chain 2 T18A, 0.92 A.U.

For the origin of these results see paper PMC8441438, “Dynamic regulation of mitotic ubiquitin ligase APC/C by coordinated Plx1 kinase and PP2A phosphatase action on a flexible Apc1 loop” (The EMBO Journal, 2021).
